Measurements taken from PMC8163065, “Involvement of the R2R3-MYB transcription factor MYB21 and its homologs in regulating flavonol accumulation in Arabidopsis stamen”.

T1: GST-MYB21 (Arabidopsis thaliana, UniProt Q9LK95 1-226)
T1 sequence: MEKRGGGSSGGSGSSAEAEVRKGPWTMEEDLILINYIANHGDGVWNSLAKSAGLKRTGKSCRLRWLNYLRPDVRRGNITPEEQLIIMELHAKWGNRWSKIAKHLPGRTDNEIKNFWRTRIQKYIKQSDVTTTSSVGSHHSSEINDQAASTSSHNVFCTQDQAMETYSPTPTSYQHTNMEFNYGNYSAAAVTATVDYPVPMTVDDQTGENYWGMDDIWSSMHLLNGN


Biological target: T1, GST-MYB21
Assay: EMSA; LightShift Chemiluminescent EMSA kit (Thermo), per manufacturer; buffer, salt, pH and temperature not stated
Conditions: protein: recombinant; tags: N-terminal GST (pGEX-4T-1); label: biotin (via primer S18, 5' tail); blunt

Binder | binding result
GARE1 FLS1 promoter probe (dsDNA) DNA 1: AGCCAGTGGCGATAAGCTCTCACCTTTTTTTTGTTATTTTATATCTTAAG DNA 2: CTTAAGATATAAAATAACAAAAAAAAGGTGAGAGCTTATCGCCACTGGCT | binds
GARE2 FLS1 promoter probe (dsDNA) DNA 1: AGCCAGTGGCGATAAGCTGGGCCTTGTCTTGTTATATGGGCCTTGAATC DNA 2: GATTCAAGGCCCATATAACAAGACAAGGCCCAGCTTATCGCCACTGGCT | binds
